Measured values published in US20080293081A1, “Fluorescence Polarization Assays for Acetyltransferase/Deacetylase Activity” (Sirtris Pharmaceuticals, Inc., priority 2005, published 2008).
No end group written: not given here.

Assays:
SIRT1 = target: T1, SIRT1 (Homo sapiens, UniProt Q96EB6); conditions: Km of NAD with the named peptide substrate; Sirt1, FRET, Marcotte et al.; cited from earlier work
T1 sequence (Q96EB6 1-747): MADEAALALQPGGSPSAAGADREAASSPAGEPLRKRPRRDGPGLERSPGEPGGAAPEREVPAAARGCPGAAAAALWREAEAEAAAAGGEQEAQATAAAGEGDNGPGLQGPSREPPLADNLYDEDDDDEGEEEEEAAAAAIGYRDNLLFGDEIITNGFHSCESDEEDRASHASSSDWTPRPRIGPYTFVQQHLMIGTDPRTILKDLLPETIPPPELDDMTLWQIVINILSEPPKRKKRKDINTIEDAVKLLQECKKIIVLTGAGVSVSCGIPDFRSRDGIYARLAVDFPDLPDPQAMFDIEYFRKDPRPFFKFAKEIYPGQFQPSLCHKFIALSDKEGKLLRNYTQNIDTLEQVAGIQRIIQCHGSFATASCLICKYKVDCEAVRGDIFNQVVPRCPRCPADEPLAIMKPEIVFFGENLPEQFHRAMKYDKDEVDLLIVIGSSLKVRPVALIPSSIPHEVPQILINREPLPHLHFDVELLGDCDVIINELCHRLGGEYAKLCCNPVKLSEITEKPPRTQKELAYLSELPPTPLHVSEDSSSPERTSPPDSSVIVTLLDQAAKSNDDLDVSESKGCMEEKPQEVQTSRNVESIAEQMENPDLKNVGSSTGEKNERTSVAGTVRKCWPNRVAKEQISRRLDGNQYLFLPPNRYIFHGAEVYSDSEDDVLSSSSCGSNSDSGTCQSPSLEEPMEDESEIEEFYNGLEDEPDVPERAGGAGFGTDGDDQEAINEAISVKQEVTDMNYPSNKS

Sirt2 = target: T2, Sirt2 (Homo sapiens, UniProt Q8IXJ6); conditions: Km of NAD with the named peptide substrate; Sirt2, FRET, Marcotte et al.; cited from earlier work
T2 sequence (Q8IXJ6 1-389): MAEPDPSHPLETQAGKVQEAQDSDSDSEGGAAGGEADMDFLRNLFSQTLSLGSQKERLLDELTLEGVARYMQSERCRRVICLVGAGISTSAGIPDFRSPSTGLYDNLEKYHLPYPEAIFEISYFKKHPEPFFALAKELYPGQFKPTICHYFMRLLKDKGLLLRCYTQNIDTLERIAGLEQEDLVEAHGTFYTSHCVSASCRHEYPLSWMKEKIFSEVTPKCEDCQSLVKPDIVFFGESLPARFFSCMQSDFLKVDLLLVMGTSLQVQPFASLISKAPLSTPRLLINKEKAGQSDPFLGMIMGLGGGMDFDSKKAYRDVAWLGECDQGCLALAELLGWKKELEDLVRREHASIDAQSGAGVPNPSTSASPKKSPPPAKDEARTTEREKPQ

[1] = target: T3, Ac-EE-K(biotin)-GQSTSSHS-K(Ac)-Nle-STEG-K(5-TMR)-EE-NH2
T3 chain: GQSTSSHSKXSTEGKEE

[2] = target: T4, Biotin-Nle-PSD-K(Ac)-TIGG-K(MR121)-NH2
T4 chain: XPSDKTIGGK

In the case of “p53 20 mer (aa 372-387) *FL: p53 20 mer (aa 372-387) peptide substrate with fluorescent label, FRET assay of Marcotte et al. (KKGQSTSRHKKLMFKT; also: fluorescent label, position not given here; UniProt P04637 372-387, looked up, fragment)”, the Km (SIRT1) is listed as 90 µM and the Km (Sirt2) is listed as 42 µM.

B1: SIRT1 (protein)
chain: T1 sequence (Q96EB6 1-747)
With B1 the Peptide Km (uM), fluorescent polarization deacetylase assay [1] was 7.8 µM.

B2: Human SIRT2 enzyme (protein)
chain: T2 sequence (Q8IXJ6 1-389)
Work on B2 yielded a Peptide Km (uM), fluorescent polarization deacetylase assay [2] of 50 µM.
